Measured values from the supplement of paper PMC10567573.

B1: ZNF263 (parent)
chain: PEASHLRFRRFRFQEAAGPREALS
B2: POLD4 (parent)
chain: ITDSYPVVKRREGPAGHSKGELAP

Variants of: B1
Assay: protein stability index of a GFP-peptide fusion (GPS, HEK-293T) (PSI 1-6); higher = more stable
Conditions: c terminus: a fixed tail appended
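Note: lentivirally expressed fusions sorted by FACS into six bins by GFP to DsRed ratio, PSI derived from sequencing read proportions per bin multiplied by bin number.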

| Variant | protein stability index |
| --- | --- |
| F13P | 3.9 |
| F13G | 4.17 |
| F13K | 4.07 |
| F13V | 3.61 |
| F13D | 4.81 |
| F13W | 3.58 |
| F13Q | 4.18 |
| F13T | 4.15 |
| F13I | 3.28 |
| F13L | 2.65 |
| F13A | 3.97 |
| F13S | 4.01 |
| F13E | 3.86 |
| F13R | 3.56 |
| F13M | 3.59 |
| F13Y | 2.3 |
| F13N | 3.8 |
| F13C | 2.75 |
| L6R | 3.06 |
| L6I | 2.42 |
| L6V | 3.36 |
| L6K | 2.73 |
| L6G | 3.46 |
| L6S | 3.23 |

| Variant | protein stability index |
| --- | --- |
| L6Y | 1.66 |
| L6P | 3.03 |
| L6W | 2.37 |
| L6M | 2.54 |
| L6T | 1.98 |
| L6Q | 3.63 |
| L6N | 3.03 |
| L6A | 3.3 |
| L6E | 3.61 |
| L6F | 2.75 |
| L6H | 3.46 |
| L6C | 2.6 |
| L6D | 3.62 |
| H5Y | 1.95 |
| H5T | 2.89 |
| H5W | 2.44 |
| H5Q | 3.04 |
| H5I | 1.91 |
| H5C | 2.55 |
| H5A | 2.61 |
| H5E | 2.47 |
| H5S | 2.29 |
| H5M | 3.39 |
| H5D | 3.21 |

| Variant | protein stability index |
| --- | --- |
| H5V | 2.15 |
| H5K | 1.77 |
| H5N | 2.31 |
| H5G | 2.44 |
| H5L | 2.74 |
| H5R | 2.68 |
| H5P | 1.49 |
| H5F | 2.12 |
| A3G | 2.95 |
| A3P | 2.87 |
| A3F | 2.8 |
| A3V | 1.73 |
| A3H | 2.84 |
| A3C | 2.95 |
| A3I | 2.52 |
| A3T | 2.52 |
| A3M | 3.55 |
| A3E | 2.82 |
| A3Q | 2.55 |
| A3S | 2.59 |
| A3K | 2 |
| A3W | 1.97 |
| A3L | 2.4 |
| A3Y | 2.38 |

| Variant | protein stability index |
| --- | --- |
| A3R | 2.71 |
| A3D | 3.1 |
| A3N | 1.98 |
| R12I | 2.33 |
| R12C | 1.81 |
| R12Q | 4.36 |
| R12Y | 2.4 |
| R12K | 3.64 |
| R12L | 2.99 |
| R12E | 5.03 |
| R12V | 3.61 |
| R12F | 2.19 |
| R12A | 3.32 |
| R12S | 4.05 |
| R12D | 3.93 |
| R12T | 3.59 |
| R12P | 3.39 |
| R12H | 3.14 |
| R12G | 3.28 |
| R12W | 2.56 |
| R12N | 3.77 |
| R12M | 3.46 |
| S4M | 3.15 |
| S4T | 2.76 |

| Variant | protein stability index |
| --- | --- |
| S4R | 2.19 |
| S4L | 1.83 |
| S4N | 2.8 |
| S4I | 1.7 |
| S4K | 2.04 |
| S4V | 1.93 |
| S4W | 3.12 |
| S4A | 2.4 |
| S4D | 2.92 |
| S4E | 2.97 |
| S4Y | 2.83 |
| S4F | 1.87 |
| S4H | 2.04 |
| S4Q | 2.19 |
| S4P | 3.78 |
| S4C | 2.87 |
| S4G | 2.76 |
| E2H | 2 |
| E2F | 1.73 |
| E2M | 1.75 |
| E2K | 2.83 |
| E2C | 1.08 |
| E2I | 1.72 |
| E2D | 3.22 |

| Variant | protein stability index |
| --- | --- |
| E2W | 1.52 |
| E2G | 2.12 |
| E2R | 2.84 |
| E2V | 2.12 |
| E2Y | 1.82 |
| E2L | 1.29 |
| E2N | 2.52 |
| E2S | 2.52 |
| E2A | 2.88 |
| E2T | 2.4 |
| E2Q | 2.11 |
| F8G | 3.29 |
| F8C | 2.69 |
| F8T | 3.4 |
| F8N | 3.46 |
| F8A | 3.28 |
| F8E | 3.98 |
| F8W | 1.94 |
| F8P | 3.04 |
| F8D | 3.08 |
| F8R | 3.55 |
| F8I | 3.43 |
| F8K | 3.29 |
| F8S | 3.21 |

| Variant | protein stability index |
| --- | --- |
| F8Y | 2.76 |
| F8L | 2.84 |
| F8M | 2.8 |
| F8V | 3.06 |
| F8H | 3.23 |
| P1F | 3.44 |
| P1E | 2.97 |
| P1H | 2.16 |
| P1A | 1.75 |
| P1Q | 2.79 |
| P1K | 2.38 |
| P1V | 1.85 |
| P1R | 2.97 |
| P1T | 2.44 |
| P1G | 2.8 |
| P1C | 1.96 |
| P1N | 2.13 |
| P1L | 2.53 |
| P1Y | 2.3 |
| P1W | 2.08 |
| P1I | 2.71 |
| P1D | 2.65 |
| P1S | 3.74 |
| P1M | 2.73 |

| Variant | protein stability index |
| --- | --- |
| R9M | 2.78 |
| R9E | 2.21 |
| R9T | 3.32 |
| R9C | 2.44 |
| R9L | 2.8 |
| R9F | 2.29 |
| R9S | 3.8 |
| R9Y | 1.96 |
| R9I | 1.69 |
| R9D | 2.69 |
| R9K | 2.82 |
| R9N | 3.08 |
| R9H | 1.98 |
| R9A | 3.18 |
| R9Q | 3.44 |
| R9W | 1.62 |
| R9V | 2.21 |
| R9G | 3.36 |
| R10G | 2.62 |
| R10S | 2.72 |
| R10K | 2.65 |
| R10L | 2.49 |
| R10M | 3.12 |
| R10H | 2.27 |

| Variant | protein stability index |
| --- | --- |
| R10F | 1.79 |
| R10P | 2.11 |
| R10I | 1.86 |
| R10A | 2.18 |
| R10V | 1.26 |
| R10W | 3.23 |
| R10D | 3.29 |
| R10C | 2.28 |
| R10E | 2.68 |
| R10N | 2.35 |
| R10Q | 3.07 |
| R10T | 2.93 |
| R10Y | 1.91 |
| F11Q | 4.13 |
| F11K | 3.85 |
| F11I | 3.1 |
| F11H | 4.01 |
| F11D | 3.66 |
| F11Y | 2.76 |
| F11N | 4.33 |
| F11R | 4.91 |
| F11A | 3.25 |
| F11T | 4.16 |
| F11L | 2.66 |

| Variant | protein stability index |
| --- | --- |
| F11M | 3.61 |
| F11S | 3.53 |
| F11P | 4.66 |
| F11W | 2.67 |
| F11C | 2.45 |
| F11G | 3.89 |
| Q14H | 1.16 |
| Q14C | 1.89 |
| Q14G | 3.68 |
| Q14I | 1.78 |
| Q14P | 3.29 |
| Q14A | 1.81 |
| Q14R | 2.59 |
| Q14K | 3.34 |
| Q14V | 2.5 |
| Q14S | 2.87 |
| Q14N | 3 |
| Q14E | 3.23 |
| Q14M | 2.93 |
| Q14W | 2.87 |
| Q14L | 3.22 |
| Q14T | 2.88 |
| Q14D | 4.9 |
| Q14Y | 2.26 |

| Variant | protein stability index |
| --- | --- |
| E15A | 2.73 |
| E15D | 2.09 |
| E15C | 2.31 |
| E15G | 2.24 |
| E15F | 1.53 |
| R7Q | 2.75 |
| R7E | 3.26 |
| R7Y | 2.36 |
| R7N | 3.08 |
| R7P | 2.35 |
| R7H | 2.93 |
| R7M | 2.84 |
| R7T | 3.66 |
| R7I | 1.8 |
| R7C | 2.5 |
| R7S | 2.68 |
| R7G | 3.45 |
| R7F | 2.28 |
| R7V | 2.65 |
| R7L | 2.08 |
| R7K | 2.92 |
| R7D | 2.78 |
| R7W | 3.63 |
| R7A | 3.14 |

Variants of: B2
Assay: as above
Conditions: c terminus: a fixed tail appended

| Variant | protein stability index |
| --- | --- |
| P24E | 3.66 |
| P24S | 3.93 |
| P24C | 3.13 |
| P24L | 3.56 |
| P24R | 2.77 |
| P24V | 2.19 |
| P24W | 2.73 |
| P24Y | 2.38 |
| P24D | 2.5 |
| P24F | 4.06 |
| P24N | 3.62 |
| P24M | 2.89 |
| P24Q | 4.1 |
| P24A | 2.56 |
| P24I | 1.97 |
| L22M | 3.21 |
| L22R | 2.57 |
| L22S | 3.27 |
| L22C | 3.26 |
| L22K | 3.71 |
| L22D | 3.81 |
| L22P | 3.31 |
| L22N | 3.31 |
| L22I | 3.1 |

| Variant | protein stability index |
| --- | --- |
| L22E | 3.94 |
| L22Y | 2.52 |
| L22H | 3.2 |
| L22A | 3.62 |
| L22T | 3.21 |
| L22V | 3.42 |
| L22G | 2.91 |
| L22W | 3.04 |
| L22F | 3.27 |
| L22Q | 3.89 |
| E21T | 2.75 |
| E21R | 2.13 |
| E21P | 4.46 |
| E21L | 2.85 |
| E21H | 3.23 |
| E21I | 2.96 |
| E21M | 2.6 |
| E21W | 2.84 |
| E21D | 3.37 |
| E21V | 3.03 |
| E21C | 3.14 |
| E21S | 2.89 |
| E21G | 3.23 |
| E21F | 2.64 |

| Variant | protein stability index |
| --- | --- |
| E21N | 3.1 |
| E21Q | 4.12 |
| E21K | 3 |
| G20Y | 2.92 |
| A23L | 3.2 |
| A23E | 3.21 |
| A23V | 2.8 |
| A23S | 3.59 |
| A23H | 3 |
| A23Q | 3.31 |
| A23Y | 3.21 |
| A23I | 3.24 |
| A23D | 2.69 |
| A23M | 2.1 |
| A23F | 3.27 |
| A23P | 2.96 |
| A23N | 3.05 |
| A23T | 2.68 |
| A23R | 3.01 |
| A23K | 3.65 |
| A23G | 2.68 |
| A23W | 3.43 |
